IntAct's records for PubMed 20974977

B1: Interleukin-27 subunit alpha (Homo sapiens), Q8NEV9 (parent)
chain: MGQTAGDLGWRLSLLLLPLLLVQAGVWGFPRPPGRPQLSLQELRREFTVSLHLARKLLSEVRGQAHRFAESHLPGVNLYLLPLGEQLPDVSLTFQAWRRLSDPERLCFISTTLQPFHALLGGLGTQGRWTNMERMQLWAMRLDLRDLQRHLRFQVLAAGFNLPEEEEEEEEEEEEERKGLLPGALGSALQGPAQVSWPQLLSTYRLLHSLELVLSRAVRELLLLSKAGHSVWPLGFPTLSPQP
partner: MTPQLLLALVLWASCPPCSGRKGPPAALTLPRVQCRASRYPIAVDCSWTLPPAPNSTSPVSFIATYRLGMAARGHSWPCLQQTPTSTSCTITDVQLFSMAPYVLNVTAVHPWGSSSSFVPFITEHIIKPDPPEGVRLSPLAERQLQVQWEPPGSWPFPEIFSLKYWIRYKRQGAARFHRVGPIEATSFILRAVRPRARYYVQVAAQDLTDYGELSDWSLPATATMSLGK
B2: Interleukin-27 subunit beta (Homo sapiens), Q14213 (parent)
chain: B1 partner
partner: B1 chain

Variants of: B1
Conditions: with il27b_human EBI3, Q14213
For W97A, the “effect of a mutation on the interaction” value was “disrupting interaction”.
W197A was tested, and the “effect of a mutation on the interaction” value was “increasing interaction”.

Variants of: B2
Conditions: with il27a_human IL27, Q8NEV9
D210A was tested, and the “effect of a mutation on the interaction” value was “disrupting interaction”.
For E159A, the “effect of a mutation on the interaction” value was “decreasing interaction”.
For F97A, the “effect of a mutation on the interaction” value was “decreasing interaction”.
